Measurements taken from US20240301052A1 (LANOVA MEDICINES DEVELOPMENT, published 2024).
Several values for one entry are separate records, joined by “and”; a condition that tells them apart may be missing. Equal values may be shown once.

What was measured:
human SLC34A2 [1] = biological target: T1, human SLC34A2 (human, UniProt O95436 1-690); assay: FACS, OVCAR3 cells
T1 sequence (looked up): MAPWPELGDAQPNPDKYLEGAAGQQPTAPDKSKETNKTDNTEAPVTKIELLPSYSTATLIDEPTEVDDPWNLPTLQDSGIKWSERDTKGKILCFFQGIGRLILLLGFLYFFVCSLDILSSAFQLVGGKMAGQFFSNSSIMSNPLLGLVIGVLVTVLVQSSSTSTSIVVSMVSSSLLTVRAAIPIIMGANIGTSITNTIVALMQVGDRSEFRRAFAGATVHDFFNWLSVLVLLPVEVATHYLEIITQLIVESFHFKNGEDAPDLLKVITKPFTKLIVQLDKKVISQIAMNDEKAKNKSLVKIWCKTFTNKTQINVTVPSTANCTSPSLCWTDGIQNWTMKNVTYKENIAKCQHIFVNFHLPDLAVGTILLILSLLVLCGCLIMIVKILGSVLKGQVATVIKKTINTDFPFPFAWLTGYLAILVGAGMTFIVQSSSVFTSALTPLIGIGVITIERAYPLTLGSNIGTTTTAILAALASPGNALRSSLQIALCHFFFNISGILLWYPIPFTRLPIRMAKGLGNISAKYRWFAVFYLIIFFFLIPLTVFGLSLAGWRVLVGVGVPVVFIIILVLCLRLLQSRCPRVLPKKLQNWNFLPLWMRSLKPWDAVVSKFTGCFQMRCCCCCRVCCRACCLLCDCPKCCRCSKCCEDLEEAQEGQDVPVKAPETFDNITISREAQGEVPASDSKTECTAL

human SLC34A2 [2] = biological target: T1, human SLC34A2; assay: FACS, OVCAR3 cells; remark: listed apart in the source
human SLC34A2 [3] = biological target: T1, human SLC34A2; assay: FACS, RMG-1 cells
human SLC34A2 [4] = biological target: T1, human SLC34A2; assay: FACS, OVCAR3 cells; remark: listed apart in the source
human SLC34A2 [5] = biological target: T1, human SLC34A2; assay: FACS, RMG-1 cells; remark: listed apart in the source
human SLC34A2 [6] = biological target: T1, human SLC34A2; assay: FACS, HEK293/human SLC34A2 cells
Rhesus SLC34A2 = biological target: T2, Rhesus SLC34A2 (Rhesus, UniProt F7HDA3 1-690); assay: FACS, HEK293/Rhesus SLC34A2 cells
T2 construct: whole, on cells
T2 sequence: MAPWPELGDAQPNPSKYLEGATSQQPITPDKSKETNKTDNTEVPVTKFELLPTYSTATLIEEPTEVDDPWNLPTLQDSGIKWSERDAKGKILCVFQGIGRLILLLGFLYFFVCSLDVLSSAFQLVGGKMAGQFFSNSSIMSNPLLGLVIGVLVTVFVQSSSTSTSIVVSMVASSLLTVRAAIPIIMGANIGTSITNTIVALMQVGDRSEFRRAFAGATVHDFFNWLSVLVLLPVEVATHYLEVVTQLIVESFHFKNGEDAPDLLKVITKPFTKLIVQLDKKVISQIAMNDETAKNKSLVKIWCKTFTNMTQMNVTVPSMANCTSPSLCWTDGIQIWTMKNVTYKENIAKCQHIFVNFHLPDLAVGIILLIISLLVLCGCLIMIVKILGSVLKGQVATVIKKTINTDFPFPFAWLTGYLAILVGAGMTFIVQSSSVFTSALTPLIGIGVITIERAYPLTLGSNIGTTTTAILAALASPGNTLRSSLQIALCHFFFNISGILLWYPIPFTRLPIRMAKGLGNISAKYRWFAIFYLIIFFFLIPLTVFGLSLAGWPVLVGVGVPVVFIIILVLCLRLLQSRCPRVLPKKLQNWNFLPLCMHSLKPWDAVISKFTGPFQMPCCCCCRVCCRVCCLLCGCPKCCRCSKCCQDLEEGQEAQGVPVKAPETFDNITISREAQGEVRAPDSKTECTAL

rat SLC34A2 = biological target: T3, rat SLC34A2 (rat, UniProt Q9JJ09 1-695); assay: FACS, HEK293/Rat SLC34A2 cells
T3 construct: whole, on cells
T3 sequence (looked up): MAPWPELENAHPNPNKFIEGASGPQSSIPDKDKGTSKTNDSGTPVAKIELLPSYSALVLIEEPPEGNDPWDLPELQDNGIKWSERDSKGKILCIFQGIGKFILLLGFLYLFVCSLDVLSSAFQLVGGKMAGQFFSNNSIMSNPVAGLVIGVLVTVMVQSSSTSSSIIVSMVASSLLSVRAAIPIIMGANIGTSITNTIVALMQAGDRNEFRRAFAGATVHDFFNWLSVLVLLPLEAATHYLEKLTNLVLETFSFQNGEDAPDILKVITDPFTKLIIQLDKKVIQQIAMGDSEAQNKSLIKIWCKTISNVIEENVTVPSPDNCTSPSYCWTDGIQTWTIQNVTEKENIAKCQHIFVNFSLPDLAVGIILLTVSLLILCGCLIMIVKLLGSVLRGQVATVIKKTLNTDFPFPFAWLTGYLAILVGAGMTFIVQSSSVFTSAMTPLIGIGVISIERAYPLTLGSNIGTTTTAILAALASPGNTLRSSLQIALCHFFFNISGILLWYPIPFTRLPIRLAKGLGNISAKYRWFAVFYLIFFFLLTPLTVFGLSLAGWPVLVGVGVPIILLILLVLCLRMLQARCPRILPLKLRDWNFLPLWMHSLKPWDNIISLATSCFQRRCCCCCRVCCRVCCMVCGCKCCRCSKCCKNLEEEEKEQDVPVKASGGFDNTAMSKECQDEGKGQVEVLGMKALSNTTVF

EC50 (human SLC34A2 [1]): 4.31 nM and 3.99 nM
Top (MFI) (human SLC34A2 [1]): 40200 MFI and 26700 MFI
EC50 (human SLC34A2 [2]): 6.82 nM
EC50 (human SLC34A2 [3]): 7.17 nM
Top (human SLC34A2 [3]): 9940 MFI
EC50 (human SLC34A2 [4]): 3.8 nM
Top (human SLC34A2 [4]): 29000 MFI
Top (MFI) (human SLC34A2 [4]): 58400 MFI
EC50 (human SLC34A2 [5]): 4.87 nM
Top (MFI) (human SLC34A2 [5]): 9110 MFI
EC50 (human SLC34A2 [6]): 2.5 nM
Top (MFI) (human SLC34A2 [6]): 27700 MFI
EC50 (Rhesus SLC34A2): 2.6 nM
Top (MFI) (Rhesus SLC34A2): 11500 MFI
EC50 (rat SLC34A2): 4.48 nM
B1: XMT-1536 (antibody, INN chains, looked up, V domains shown)
VH: QVQLVQSGAEVVKPGASVKMSCKASGYTFTGYNIHWVKQAPGQGLEWIGAIYPGNGDTSYKQKFRGRATLTADTSTSTVYMELSSLRSEDSAVYYCARGETARATFAYWGQGTLVTVSS
VL: DIQMTQSPSSLSASVGDRVTITCSASQDIGNFLNWYQQKPGKTVKVLIYYTSSLYSGVPSRFSGSGSGTDYTLTISSLQPEDFATYYCQQYSKLPLTFGQGTKLELK
modifications: rilsodotin auristatin payload
